In the supplement of paper PMC12042874:
± gives the uncertainty stated by the source.

Test: amyloid nucleation score (Sup35N fusion, yeast selection) (log enrichment); library NNK1; higher = more nucleation; inactive = no reads after selection
Method in brief: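 DiMSum was used to calculate nucleation scores as log enrichment of output over input reads, centred on the mode score of non-aggregating sequences. Sequences with fewer than 100 input reads were not scored. Input and output came from Illumina sequencing of plasmid inserts in psi-negative yeast expressing peptides of 20 random codons fused to Sup35N, induced 24 hours with 100 μM copper sulfate and then grown 7 days at 30°C on medium lacking adenine and uracil.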

Substance | amyloid nucleation score
GVCFLAR | 0.707 ± 0.74
GVCKTYSIDKAPI | 0.823 ± 0.51
GVCRLLGKVAMLV | -2.1 ± 2.4
GVGDTNCSEL | 0.178 ± 0.33
GVGRRMSMWYVCDAGWEAWR | 3.16 ± 0.094
GVRAVLFETWCRN | -0.693 ± 1
GVSMFHRFSSHNWMCCWFVG | 7.654 ± 0.064
GVTLYRRGIFGMSL | 0.338 ± 0.66
GVVLGYRCLNMGLKALWSYV | -0.248 ± 0.48
GVWLVSDRKVADVRSNYCFD | -2.18 ± 2.7
GWFAR | -0.191 ± 0.57
GWIGCHDWGLRLIAHKMRGR | 0.938 ± 0.88
GWLIR | inactive
GWRNGKCFDGASPEWVLGHA | -0.39 ± 1.2
GWVLCRGSLFIWWFWTSLRL | -0.106 ± 1.2
GYACTFVLA | 0.136 ± 0.51
GYCLVYLAIGGFARILGYPV | -0.461 ± 1.1
GYEHVKG | -0.195 ± 0.46
GYFLPGFEMLCYNRRIWYIM | -1.03 ± 0.61
GYNGCYNIFVHRSDKMAALR | 0.515 ± 0.59
GYNKHLGNSGSYVHQNGAQF | 1.06 ± 0.39
GYRHRYQQTKGIVTHSMYFD | 1.27 ± 0.9

Substance | amyloid nucleation score
GYTKILMRHSNFCMTK | 0.428 ± 0.19
HAGFGFVSSCCYLHWLTGDR | 3.98 ± 0.095
HALEKLDKFRFTAS | 0.484 ± 0.64
HCRNS | 2 ± 0.3
HCSSVQFPRTGVIEVALQKD | -0.17 ± 0.57
HCTRINVHFYNIYTVLVSFS | 5.33 ± 0.073
HCWFRSWPWTISK | -0.913 ± 1.5
HDASSFSLMRKFRCGC | 0.333 ± 0.69
HDNISLG | 3.39 ± 0.12
HDREDWGDQSWYFILAWIFK | -0.745 ± 0.44
HECRWRTVYNQ | 0.786 ± 0.93
HESYVVRIYIFEDRRYLCEV | 0.037 ± 0.6
HFHNSCLYIGRVHIGHTLGV | 7.826 ± 0.052
HFVAVFMFYGWPSWYSYSES | -0.93 ± 0.35
HGHENVDWQKITDIGGRENC | -0.715 ± 1.9
HGLVNG | 0.437 ± 0.52
HGMIRWYSYTSCHSYKVSGH | -0.021 ± 0.33
HGSECSWRLLLRHPLMGTSG | -0.089 ± 0.49
HGSVRSLSYRLVSLYLSRMC | 0.748 ± 0.45
HGYSNNVARYWA | 0.372 ± 1.4
HHAFFDIPRVRGEYECFAGI | 0.192 ± 0.25
HHDMGSFFAVQSTSGTEGMG | -0.099 ± 0.37

Substance | amyloid nucleation score
HHVIRVDIMMFVVKSSELYN | inactive
HICSRDVLLRQY | 1.41 ± 0.8
HILSSVLHSGVCMWTVITPY | 0.72 ± 0.71
HILYKRFFFGSCSSGCHL | -0.428 ± 0.47
HINFIYRLRSFLQSCKNFSS | -1.23 ± 2.1
HITMRLFTPYLTYNMPMSLK | 0.063 ± 0.24
HIVVFKYVCYSHEAVYWRPE | 0.305 ± 1.2
HKFVRIDGEN | 1.54 ± 0.84
HKIDINSVLLLKCVVYVGCL | 4.12 ± 0.066
HKRAEKHNHFITWSIQSLRA | 0.653 ± 0.33
HKSILVDVILSHFSSCSRCH | 5.3 ± 0.074
HLDCGCRTFGLTWYWTKDCV | -0.143 ± 0.49
HLHFTILY | 2.55 ± 0.28
HLRKVGYSIYLFSR | 3.83 ± 0.057
HLSALLANSNLNKM | -0.359 ± 0.52
HLSLVNFCMSVSLESWYEWM | 0.819 ± 0.44
HLSYI | -0.455 ± 1.7
HLTKRGLSQTKRSAALQRVG | 0.514 ± 1.2
HLYLRITTVG | 1.49 ± 0.76
HMLIFYSGLCKPSFVYYLLY | 1.04 ± 0.58
HMNRVSGVMVVLSRGLAGMN | 2.67 ± 0.23
HMNVPIDRSLGSFFFAKVMK | 0.867 ± 0.2

Substance | amyloid nucleation score
HMRMGLGRLVHLWYWPTRDT | 0.153 ± 0.56
HMRTNKVFPCYPWPFTYTPP | inactive
HMSGFWM | -0.856 ± 1.7
HMSHMLLQIYLWLVFWSSGV | 1.42 ± 0.66
HNIKVAGQMYANKSRICTSM | 0.412 ± 0.47
HNWCYQNKGHVRGNKLCFRY | -0.112 ± 0.63
HNYVGDTLGVMSCWPTTRFP | 0.087 ± 0.87
HNYVWCSPC | 7.694 ± 0.07
HPLVGQELKDWNNELYVHVL | 0.534 ± 0.79
HPQVTWGSRLAVNFCAWCYG | 4.5 ± 0.054
HPQYMLPT | 0.569 ± 0.32
HPRMCWVPVISIIPLLSVMA | 0.185 ± 0.41
HQNRDIIMMMSFCAGNTGYK | 4.98 ± 0.12
HQVNSGDLSNMVLCLMLIRW | 1.84 ± 0.19
HRCPLTGFSSL | 0.022 ± 0.45
HREMMWQGKRV | inactive
HRFDW | 1.07 ± 0.48
HRILRESRAGRF | -0.396 ± 0.36
HRLDLSCSWNMNKVRGDWCS | -0.058 ± 0.27
HRQLWC | -1.96 ± 2.1
